We go through two substances from article PMC9684126.

For the data set, the system named is Smc5/6 holo-complex, Cy3-labelled (8 subunits) (Saccharomyces cerevisiae (expressed in W303-1a)). Nature of the data set: single-molecule optical tweezers with confocal fluorescence, lifetime. Conditions: biotin at the two ends, Single-molecule buffer not given in the material (20 nM Cy3-Smc5/6 and 2 mM ATP in Fig. 6b; ~5 or ~60 pN), entrapment: 10 mM HEPES-KOH pH 7.5, 150 mM KAc.

Consider “lambda DNA tether, ss-dsDNA junctions at high force (~60 pN)”, for which the binding signal (5 nM Smc5/6 then buffer only, high force) is greater than 290 s.

Substance “lambda DNA tether, dsDNA (low force ~5 pN, or dsDNA regions at high force)” had a binding signal of 76 s.
